The source of these data is PMC11544104.

Data set [1] deals with BAF complex, FLAG-DPF2 WT (293T) (human). Put plainly: pull-down. As to conditions: histone H3K56ac (recombinant Xenopus laevis octamer).
For data set [2], the target named is H3K56ac-mononucleosome assembled with 35N35 DNA (Xenopus laevis). Kind of data set: pull-down.

For 35N35 mononucleosome, H3K56ac, the binding signal (normalized bound DPF2 (reference)) in data set [1] was found to be 1.

As to “BAF complex containing DPF2 C330W (from UniProt Q92785;P51532)”, the fold reduction of the preferential interaction against the WT complex in data set [2] was 5 fold.

With “BAF complex containing DPF2 R350H (from UniProt Q92785;P51532)”, in data set [2], the fold reduction of the preferential interaction against the WT complex is 5 fold.

In turn, “BAF complex containing DPF2 W369R (from UniProt Q92785;P51532)” registered a fold reduction of the preferential interaction against the WT complex in data set [2] of 5 fold.
